Laboratory results published in patent US20200174002A1 (ONCOTHERAPY SCIENCE, published 2020).

What was measured:
[1] = target: T1, soluble FZD10 protein without the signal peptide (the region of amino acids 21 to 161) (human, UniProt Q9ULW2 21-161); assay: ELISA screening of hybridomas on soluble FZD10 protein
T1 construct: Immunogen and ELISA screening antigen; also called recombinant human FZD10 protein; N-terminal extracellular domain peptide of FZD10
T1 sequence: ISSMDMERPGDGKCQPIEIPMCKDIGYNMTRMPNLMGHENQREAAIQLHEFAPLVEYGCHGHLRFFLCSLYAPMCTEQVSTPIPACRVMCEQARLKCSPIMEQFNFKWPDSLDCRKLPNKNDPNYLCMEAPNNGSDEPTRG

[2] = target: T2, full length FZD10 protein (human) (human, UniProt Q9ULW2 21-581); assay: immunohistochemical staining, paraffin section of a clinical lung cancer specimen
T2 construct: Live cells in flow cytometry; formalin-fixed paraffin sections in IHC
T2 sequence: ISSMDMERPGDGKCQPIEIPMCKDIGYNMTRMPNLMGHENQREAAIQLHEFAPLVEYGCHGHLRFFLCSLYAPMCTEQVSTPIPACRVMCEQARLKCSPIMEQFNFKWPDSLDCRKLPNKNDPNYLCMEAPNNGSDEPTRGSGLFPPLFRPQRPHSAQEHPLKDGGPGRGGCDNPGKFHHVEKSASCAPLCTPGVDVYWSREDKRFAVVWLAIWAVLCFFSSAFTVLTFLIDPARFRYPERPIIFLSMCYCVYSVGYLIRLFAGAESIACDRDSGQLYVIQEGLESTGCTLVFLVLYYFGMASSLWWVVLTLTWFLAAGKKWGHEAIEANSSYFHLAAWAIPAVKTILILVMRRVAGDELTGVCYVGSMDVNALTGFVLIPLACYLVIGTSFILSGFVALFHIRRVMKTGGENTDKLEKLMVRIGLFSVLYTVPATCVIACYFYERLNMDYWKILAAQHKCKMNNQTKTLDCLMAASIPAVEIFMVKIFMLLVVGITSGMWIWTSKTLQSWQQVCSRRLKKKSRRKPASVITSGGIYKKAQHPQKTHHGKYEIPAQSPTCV
Procedure: For antigen retrieval treatment, sections immersed in Antigen Retrieval Solution pH9 (Nichirei Biosciences Inc.) were incubated at 125° C. for 30 seconds for FZD10/DLD1 and Mock/DLD1, and at 95° C. for 40 minutes for SYO1, T.T, H727, LoVo, COLO201, and clinical specimens. After incubation, they were allowed to stand at room temperature for 20 minutes, and then washed with running water for five minutes. The sections were immersed in 3.0% hydrogen peroxide for ten minutes to block endogenous peroxidases, and washed with Wash Buffer (TBS-T(Takara Bio)) for five minutes three times. Furthermore, to block nonspecific reactions, an appropriate amount of Protein Block Solution (Dako) was added dropwise onto the sections, and they were allowed to stand for ten minutes. […]
The specificity of the anti-FZD10 antibody of the present invention (10A8H4G4) in immunohistochemical staining was evaluated using paraffin sections prepared from mouse xenograft tumors of cancer cell lines and clinical lung cancer specimens. The expression of FZD10 protein and RNA in paraffin sections prepared from mouse xenograft tumors of SYO-1 and COLO201 and in cancerous and non-cancerous regions of clinical lung cancer specimens 1 to 6 was detected by immunohistochemical staining and real-time PCR, respectively, and the results are shown in FIG. 4.

- binding result [1]: binds
- binding result [2]: binds
B1: anti-FZD10 antibody (10A8H4G4) (antibody, V domains shown)
VH: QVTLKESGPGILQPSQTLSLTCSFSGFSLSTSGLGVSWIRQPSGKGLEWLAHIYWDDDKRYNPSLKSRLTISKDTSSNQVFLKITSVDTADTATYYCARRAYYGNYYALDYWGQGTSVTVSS
VL: DIVMTQSPSSLTVTAGEKVTMSCKSSQSLLNSGNQKNYLTWYQQKPGQPPKLLIYWASTRKSGVPDRFTGSGSGTDFTLTISSVQAEDLAVYYCQNDYSYPVTFGAGTKLELKR
notes: Mouse monoclonal antibody from hybridoma 10A8H4G4, purified from culture fluid on a Protein A column; it was detected with anti-mouse IgG (H+L); also called clone 10A8H4G4; FZD10Ab(10A8H4G4)
